In publication PMC11863153, “Mechanistic Insights Into Oxidative Response of Heat Shock Factor 1 Condensates” (JACS Au, 2025):
Numbering of substitutions follows the chain as printed. Names and notes keep the numbering of the source. Values joined by “and” are separate entries in the source; they are usually repeats but may differ in a detail not shown here. Equal values may be shown once. One block for each binder: values may come before it.

Key:
[1] = target: T1, Heat shock factor 1 (Hsf1) wild-type (human), Q00613; test: SEC-MALS; with 10 mM DTT (+ Reductant); 50 uM injected; 25 mM HEPES/KOH pH 7.2, 150 mM KCl; Bio SEC-5 1000 A column; oligomer size from the median molar mass; conditions: remark: other sources report otherwise
T1 chain: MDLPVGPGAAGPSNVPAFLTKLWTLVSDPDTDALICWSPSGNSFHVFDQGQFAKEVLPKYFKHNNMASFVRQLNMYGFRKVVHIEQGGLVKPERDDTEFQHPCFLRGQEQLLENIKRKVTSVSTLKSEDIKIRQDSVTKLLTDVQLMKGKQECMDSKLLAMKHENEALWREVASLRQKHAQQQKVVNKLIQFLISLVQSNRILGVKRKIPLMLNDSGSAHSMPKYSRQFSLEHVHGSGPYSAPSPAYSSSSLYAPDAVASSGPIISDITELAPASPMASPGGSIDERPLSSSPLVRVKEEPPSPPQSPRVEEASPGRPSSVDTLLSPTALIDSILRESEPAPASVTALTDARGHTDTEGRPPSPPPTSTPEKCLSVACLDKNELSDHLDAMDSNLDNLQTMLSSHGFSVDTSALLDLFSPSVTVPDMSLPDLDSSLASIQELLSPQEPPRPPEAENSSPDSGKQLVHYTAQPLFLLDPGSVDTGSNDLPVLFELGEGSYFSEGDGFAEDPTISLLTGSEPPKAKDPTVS

[2] = target: T1, Heat shock factor 1 (Hsf1) wild-type …; test: SEC-MALS; without reductant (oxidative conditions); 50 uM injected; 25 mM HEPES/KOH pH 7.2, 150 mM KCl; Bio SEC-5 1000 A column; oligomer size from the median molar mass; conditions: remark: other sources report otherwise
[3] = target: the molecule itself; test: as above
[4] = target: the molecule itself; test: SEC; analytical SEC at varying protein concentrations; change of elution volume with decreasing concentration

- stoichiometry N [1]: 7 mer
- stoichiometry N [2]: 9 mer and < 16 mer
B1: Heat shock factor 1 (Hsf1) wild-type, Q00613 1-529 (natural protein)
chain: T1 chain

B2: Hsf1 CS5 mutant (C36S/C103S/C153S/C373S/C378S) (natural protein, human, UniProt Q00613 1-529, looked up)
chain: T1 chain with C36S, C103S, C153S, C373S, C378S
notes: Heat shock factor 1 (Hsf1), human, all five cysteines replaced with serine; also called Hsf1 CS mutant; source: E. coli BL21(DE3), purified (Ni-NTA, HRV3C cleavage, HiTrap Q anion exchange, Superdex 200 gel filtration); not shown: GB1, N-terminal, cleaved; His6, N-terminal, cleaved
- stoichiometry N [3]: ~5 mer

B3: Hsf1 C153S mutant (natural protein, human, UniProt Q00613 1-529, looked up)
chain: T1 chain with C153S
notes: Heat shock factor 1 (Hsf1), human, C153S in the leucine-zipper domain LZ1-3; source: E. coli BL21(DE3), purified (Ni-NTA, HRV3C cleavage, HiTrap Q anion exchange, Superdex 200 gel filtration); not shown: GB1, N-terminal, cleaved; His6, N-terminal, cleaved
- binding result [4]: binds
